According to patent publication US20050164936A1:

Key:
Experiment in all cases: cell-based or functional assay
[1] = molecular target: RANTES(1-68) (human) (UniProt P13501)
[2] = molecular target: T1, CC chemokine receptor CCR3 (UniProt P51677)
T1 sequence (looked up): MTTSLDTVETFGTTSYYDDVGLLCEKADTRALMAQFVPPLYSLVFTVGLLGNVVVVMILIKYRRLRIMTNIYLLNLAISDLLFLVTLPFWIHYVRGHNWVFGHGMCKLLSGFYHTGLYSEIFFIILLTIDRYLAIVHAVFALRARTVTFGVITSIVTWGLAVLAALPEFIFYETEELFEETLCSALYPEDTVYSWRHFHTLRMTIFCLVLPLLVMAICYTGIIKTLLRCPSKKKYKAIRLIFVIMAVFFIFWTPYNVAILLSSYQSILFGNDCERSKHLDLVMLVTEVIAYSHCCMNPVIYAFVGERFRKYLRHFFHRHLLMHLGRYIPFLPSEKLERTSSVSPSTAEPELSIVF

[3] = molecular target: CC chemokine receptor CCR5 (human) (UniProt P51681)
[4] = molecular target: T2, CC chemokine receptor CCR1 (UniProt P32246)
T2 sequence (looked up): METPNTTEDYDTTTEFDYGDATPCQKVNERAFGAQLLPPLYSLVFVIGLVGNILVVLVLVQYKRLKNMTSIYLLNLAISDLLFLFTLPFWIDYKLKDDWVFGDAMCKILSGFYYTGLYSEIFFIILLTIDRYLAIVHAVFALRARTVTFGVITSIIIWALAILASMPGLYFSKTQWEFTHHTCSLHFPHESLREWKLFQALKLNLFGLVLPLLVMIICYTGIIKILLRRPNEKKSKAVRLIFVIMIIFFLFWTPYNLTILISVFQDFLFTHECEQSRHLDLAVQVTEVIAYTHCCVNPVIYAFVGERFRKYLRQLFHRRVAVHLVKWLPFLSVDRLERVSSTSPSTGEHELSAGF

Sequence of CC chemokine receptor CCR5 (human) (P51681 whole entry): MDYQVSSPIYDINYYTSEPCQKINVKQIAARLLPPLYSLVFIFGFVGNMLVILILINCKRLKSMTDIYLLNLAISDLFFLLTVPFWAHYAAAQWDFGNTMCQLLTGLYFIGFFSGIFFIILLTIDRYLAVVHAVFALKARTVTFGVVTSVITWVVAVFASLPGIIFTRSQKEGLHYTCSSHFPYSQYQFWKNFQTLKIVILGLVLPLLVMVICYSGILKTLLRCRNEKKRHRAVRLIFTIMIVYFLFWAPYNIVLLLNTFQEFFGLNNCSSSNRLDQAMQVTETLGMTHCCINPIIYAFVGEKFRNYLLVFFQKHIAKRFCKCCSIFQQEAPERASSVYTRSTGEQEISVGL
Sequence of RANTES(1-68) (P13501 24-91 limits assumed): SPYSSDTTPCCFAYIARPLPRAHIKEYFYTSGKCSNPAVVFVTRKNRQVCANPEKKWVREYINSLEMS
Sequence of RANTES(3-68) (P13501 26-91 limits assumed): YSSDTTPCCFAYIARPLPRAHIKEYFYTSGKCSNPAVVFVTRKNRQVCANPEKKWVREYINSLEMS
Sequence of soluble CD26 (sCD26) (P27487 39-766 limits assumed): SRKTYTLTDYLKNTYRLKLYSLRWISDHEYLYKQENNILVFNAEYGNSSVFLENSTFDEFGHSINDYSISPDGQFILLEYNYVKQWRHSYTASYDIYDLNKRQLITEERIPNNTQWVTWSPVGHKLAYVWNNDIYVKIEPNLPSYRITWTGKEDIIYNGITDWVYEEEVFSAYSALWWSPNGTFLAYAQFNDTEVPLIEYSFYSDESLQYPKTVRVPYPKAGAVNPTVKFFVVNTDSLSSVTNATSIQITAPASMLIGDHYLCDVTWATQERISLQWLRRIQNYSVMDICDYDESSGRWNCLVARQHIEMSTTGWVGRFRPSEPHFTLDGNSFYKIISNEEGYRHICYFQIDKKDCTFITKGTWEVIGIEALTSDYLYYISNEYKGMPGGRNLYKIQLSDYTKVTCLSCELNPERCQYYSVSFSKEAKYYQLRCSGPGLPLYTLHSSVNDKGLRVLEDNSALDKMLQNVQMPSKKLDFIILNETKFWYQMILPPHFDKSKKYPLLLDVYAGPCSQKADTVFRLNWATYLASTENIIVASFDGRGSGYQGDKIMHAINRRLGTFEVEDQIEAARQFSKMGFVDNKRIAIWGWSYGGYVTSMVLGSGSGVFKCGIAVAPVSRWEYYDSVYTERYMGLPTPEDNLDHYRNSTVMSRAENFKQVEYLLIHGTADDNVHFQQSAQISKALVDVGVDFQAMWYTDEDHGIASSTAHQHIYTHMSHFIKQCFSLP
Sequence of RANTES(1-68) (human) (P13501 24-91 limits assumed): as the sequence (P13501 24-91 limits assumed) above

Row | Substance | IC50 of RANTES(1-68) against HIV-1 BaL in HOS.CD4.CCR5 cells when sCD26 at 50 U/l is added (p24 Ag ELISA) [1] | concentration needed to increase [Ca2+]i in HOS cells transfected with CCR3 [2] | IC50, inhibition of HIV-1 BaL replication in HOS.CD4.CCR5 cells (p24 Ag ELISA) [3] | IC50, inhibition of HIV-1 BaL replication in U87.CD4.CCR5 cells (p24 Ag ELISA) [3] | IC90, inhibition of HIV-1 BaL replication in HOS.CD4.CCR5 cells (p24 Ag ELISA) [3] | IC90, inhibition of HIV-1 BaL replication in U87.CD4.CCR5 cells (p24 Ag ELISA) [3] | Increase in [Ca2+]i (nM) at 10 ng/ml, HOS cells transfected with CD4 and CCR5 [3] | Increase in [Ca2+]i (nM) at 30 ng/ml, HOS cells transfected with CD4 and CCR5 [3] | Increase in [Ca2+]i (nM) at 100 ng/ml, HOS cells transfected with CD4 and CCR5 [3] | Increase in [Ca2+]i (nM) at 300 ng/ml, HOS cells transfected with CD4 and CCR5 [3] | inhibition of the [Ca2+]i rise by a subsequent challenge with intact RANTES (100 ng/ml) after pre-incubation of CCR5-transfected cells with a 3- to 10-fold excess [3] | Increase in [Ca2+]i (nM) at 30 ng/ml, HOS cells transfected with CD4 and CCR1 [4] | Increase in [Ca2+]i (nM) at 100 ng/ml, HOS cells transfected with CD4 and CCR1 [4] | Increase in [Ca2+]i (nM) at 300 ng/ml, HOS cells transfected with CD4 and CCR1 [4] | concentration sufficient to increase [Ca2+]i in HOS cells transfected with CCR3 [2] | Increase in [Ca2+]i (nM) at 10 ng/ml, HOS cells transfected with CD4 and CCR1 [4]
1 | soluble CD26 (sCD26) (from UniProt P27487 39-766) (enzyme) | 13 nM | – | – | – | – | – | – | – | – | – | – | – | – | – | – | –
2 | RANTES(3-68) (from UniProt P13501 26-91) (ligand) | – | > 300 ng/mL | 5.5 nM | 0.65 nM | > 130 nM | 63 nM | < 15 nM | 56 nM | 76 nM | 119 nM | 75% | < 15 nM | < 15 nM | 19 nM | – | –
3 | RANTES(1-68) (from UniProt P13501 24-91) (ligand) | – | – | > 130 nM | 21 nM | > 130 nM | > 130 nM | < 15 nM | 24 nM | 60 nM | 96 nM | 75% | 25 nM | 100 nM | 133 nM | 100 ng/mL | < 16 nM
